Experiments:
CRALBP = target: T1, CRALBP (Bos taurus, UniProt P10123); conditions: CRALBP isolated from bovine retina; cited from earlier work
T1 construct: CRALBP was isolated from bovine retina; from tissue; host or cells: bovine retina

[1] = Photoisomerization assay of cis-retinal complexes under daylight bulb, UV/Vis; assay type: physicochemical; conditions: for k, reaction velocity of photoisomerization: oxidized overnight at 4° C. with 5 mM oxidized glutathione, reduced with DTT
Method: Photoisomerization assays of cis-retinal and its complexes with wild-type CRALBP or with di-cysteine mutant A212C:T250C of CRALBP were performed essentially as described by Saari et al. (Saari J C and Bredberg D L, ([…]), J Biol Chem. 262(16):7618-22). For this, the gel permeation chromatography purified ligand complexes were diluted to 26 μM in (GFC) buffer (10 mM Hepes, 100 mM NaCl, pH 7.5) and equimolar amounts of BSA were added to avoid protein precipitation through the light induced formation of free all-trans-retinal. […] Simultaneously UV/Vis absorption spectra were collected every 180 seconds for 3600 sec in total using the Evolution array UV/Vis spectrophotometer (Thermo Scientific). For photoisomerization experiments of the oxidized mutant A212C: T250C or the wild-type CRALBP, 5 mM oxidized glutathione was added to the preformed complexes and the mixtures were kept overnight at 4° C. For repeated reduction, the oxidized glutathion was first removed from the samples using a Vivaspin 15R Hydrosart (Sartorius) by three times concentrating the samples to a tenth of the volume and subsequent redilution in buffer (10 mM Hepes, 100 mM NaCl, pH 7.5) to the original volume. The washed samples were then reduced by adding 5 mM DTT and kept at 4° C. for 1 hour. […] Thus, the introduction of the A212C:T250C double mutation represents an engineered redox-sensitive on-off switch into human CRALBP allowing for a reversible turning on and off of CRALBP's mobile gate functionality. The two mutations are located at adjacent positions in the mobile gate's interface of CRALBP allowing for the formation of an intramolecular disulfide bond under oxidizing conditions and to regain the gate's native functionality under reducing conditions.

[2] = both in complex with 11-cis-retinal; estimated from first order rate constants and extinction coefficients; cited from earlier work
[3] = Dynamic light scattering of GFC complex fractions; assay type: physicochemical; conditions: DLS, 25° C., H2O; ± SD
Method: The same fractions derived from the preparative GFC that were characterized by analytical GFC, were also analyzed by dynamic light scattering (DLS) on a Malvern Zetasizer S®. Each DLS experiment contains was performed following the settings compiled in Table 5, the run duration and number of runs per measurement was set according to the auto-optimization of the Malvern Zetasizer software.

T1 sequence (P10123 whole entry): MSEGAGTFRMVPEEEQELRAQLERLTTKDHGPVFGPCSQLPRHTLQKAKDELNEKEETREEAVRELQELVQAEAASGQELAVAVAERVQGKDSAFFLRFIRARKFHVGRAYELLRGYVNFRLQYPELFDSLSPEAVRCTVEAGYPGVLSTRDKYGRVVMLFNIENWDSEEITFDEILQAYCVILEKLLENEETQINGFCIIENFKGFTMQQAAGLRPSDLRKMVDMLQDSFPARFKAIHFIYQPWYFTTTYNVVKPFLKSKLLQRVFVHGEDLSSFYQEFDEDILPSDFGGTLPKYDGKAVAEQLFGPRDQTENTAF

## CC1=C(/C=C/C(C)=C\C=C\C(C)=C\C=O)C(C)(C)CCC1 [9-cis-retinal]
CRALBP
  Kd: 53 nM

## CC1=C(/C=C/C(C)=C/C=C/C(C)=C/C=O)C(C)(C)CCC1 [11-cis-retinal]
CRALBP
  Kd: 20 nM

## CC1=C(/C=C/C(C)=C/C=C\C(C)=C\CO)C(C)(C)CCC1 [11-cis-retinol]
CRALBP
  Kd: 60 nM

## CC1=C(/C=C/C(C)=C/C=C/C(C)=C/C=O)C(C)(C)CCC1 [13-cis]
CRALBP
  binding to CRALBP: does not bind

## A212C:T250C: human CRALBP mutein with alanine 212 and threonine 250 replaced by cysteines, SEQ ID NO:9
[1]; FIG. 8, complex with cis-retinal, 1000 lux
  increase of photostability (half-life t1/2), oxidized versus reduced redox state: 20 fold
[1]; oxidized state, FIG. 9, 380 lux, room temperature
  slowing down of the rate of photoisomerization: at least 10 fold
[1]; repeat reduction of the oxidized sample in 5 mM DTT
  behaviour in photoisomerization assay after repeat reduction: re-established wild-type like behavior

## CRALBP: CRALBP isolated from bovine retina, in complex with 11-cis-retinal
[2]
  expected photoisomerization in CRALBP compared to rhodopsin: 4%

## HMW: high molecular weight oligomeric complex fraction of A212C:T250C CRALBP with 9-cis-retinal
[3]
  average size distribution in diameter: 13.50±0.47 nm

## SHMW: super high molecular weight oligomeric complex fraction of A212C:T250C CRALBP with 9-cis-retinal
[3]
  average size distribution in diameter: 28.28±2.13 nm

## dimeric complex: dimeric GFC fraction of A212C:T250C CRALBP loaded with 9-cis-retinal
[3]
  average size distribution in diameter: 8.72±2.41 nm

## monomeric complex of di-cysteine A212C:T250C CRALBP with 9-cis-retinal: monomeric GFC fraction of A212C:T250C CRALBP loaded with 9-cis-retinal
[3]
  average size distribution in diameter: 6.50±1.50 nm

## ox. A212C:T250C: 11-cis-retinal: oxidized A212C:T250C mutant in complex with 11-cis-retinal
[1]; FIG. 9
  k, reaction velocity of photoisomerization: 6.44e-06 s⁻¹

## oxidized A212C:T250C:9-cis-retinal: oxidized A212C:T250C mutant in complex with 9-cis-retinal
[1]; FIG. 9, oxidized with 5 mM oxidized glutathione
  photoisomerization detectable: No photoisomerization was detectable

## red. A212C:T250C: 11-cis-retinal: reduced A212C:T250C mutant in complex with 11-cis-retinal
[1]; FIG. 9
  k, reaction velocity of photoisomerization: 5.988e-05 s⁻¹

## wild-type: wild-type CRALBP in complex with cis-retinal, photoisomerization assay [reference compound]
[1]; FIG. 9
  k, reaction velocity of photoisomerization: 6.324e-05 s⁻¹

Reference: patent US20240228559A1, “REDOX SENSITIVE CRALBP MUTANT PROTEINS” (UNIVERSITÄT BERN, priority 2021, published 2024)
